According to the DeepSol protein solubility set:

Assay: soluble on expression in E. coli; label from the status in PepcDB or PDB records
With “MGSDKIHHHHHHMHNHPAKRINSIKLCLDVKVALTPQTESRDMAASSKDAAFWSKISRKYAADPIRNMDGYLQTLDRTKSYLKPEDHVLEIGCGTGSTALLLAPHVAHITGTDLAPGMIEIAAEKRAKEGLENVTFKVAETLDHNPQDGAYDAILAHNLLHLLHDLDQSLQRIAALTKTGGVFISKTVCAPKAGGIKYALIRALAIPLMQRIGKAPYVNFISVPDLERRIERAGFEICEVISQPGLMQSHYVVARKL” the “soluble on expression in E. coli” value was “not soluble”.
For “MSLAQLPSELLSLQLPLRIRIGDAQAFDLGPDPQVTMVIRDPTLLTEITHPSLDALGKAYVEKRLDIEGPISQVIGIGDALSEALGDPDGEASPVRESHDKATDAEAIHYHYDLSNDFYRLWLDPEMVYSCAYFETGREDLATAQLAKLRHLCRKLRLQPGEKLLDVGCGWGGLARLAAREFGVEVTGITLSKEQLALGQERVRAEGLEDRVTLKLLDYRDLPRDGRFDKVVSVGMFEHVGHANLGLYFQQLYDAVRPGGLVMNHGITSLYTDGRPVGKGAGDFIDRYVFPHGELPHLSLAVARMSEAGLEVVDVESLRLHYARTLDFWSANLEAKLKEAARLVPEETLRIWRLYLAGCAYGFKRGWINLHQILANRPHEDGSHELPWSRRDLYAEGHHHHHH”, the “soluble on expression in E. coli” value was “soluble”.
For “MKGRLLDAVPLSSLTGVGAALSNKLAKINLHTVQDLLLHLPLRYEDRTHLYPIGELLPGVYATVEGEVLNCNISFGGRRMMTCQISDGSGILTMRFFNFSAAMKNSLAAGRRVLAYGEAKRGKYGAEMIHPEYRVQGDLSTPELQETLTPVYPTTEGVKQATLRKLTDQALDLLDTCAIEELLPPELSQGMMTLPEALRTLHRPPPTLQLSDLETGQHPAQRRLILEELLAHNLSMLALRAGAQRFHAQPLSANDTLKNKLLAALPFKPTGAQARVVAEIERDMALDVPMMRLVQGDVGSGKTLVAALAALRAIAHGKQVALMAPTELLAEQHANNFRNWFAPLGIEVGWLAGKQKGKARLAQQEAIASGQVQMIVGTHAIFQEQVQFNGLALVIIDEQHRFGVHQRLALWEKGQQQGFHPHQLIMTATPIPRTLAMTAYADLDTSVIDELPPGRTPVTTVAIPDTRRTDIIDRVHHACITEGRQAYWVCTLIEESELLEAQAAEATWEELKLALPELNVGLVHGRMKPAEKQAVMASFKQGELHLLVATTVIEVGVDVPNASLMIIENPERLGLAQLHQLRGRVGRGAVASHCVLLYKTPLSKTAQIRLQVLRDSNDGFVIAQKDLEIRGPGELLGTRQTGNAEFKVADLLRDQAMIPEVQRLARHIHERYPQQAKALIERWMPETERYSNA”, the “soluble on expression in E. coli” value was “soluble”.
For “MSTPFGLDLGNNNSVLAVARNRGIDIVVNEVSNRSTPSVVGFGPKNRYLGETGKNKQTSNIKNTVANLKRIIGLDYHHPDFEQESKHFTSKLVELDDKKTGAEVRFAGEKHVFSATQLAAMFIDKVKDTVKQDTKANITDVCIAVPPWYTEEQRYNIADAARIAGLNPVRIVNDVTAAGVSYGIFKTDLPEGEEKPRIVAFVDIGHSSYTCSIMAFKKGQLKVLGTACDKHFGGRDFDLAITEHFADEFKTKYKIDIRENPKAYNRILTAAEKLKKVLSANTNAPFSVESVMNDVDVSSQLSREELEELVKPLLERVTEPVTKALAQAKLSAEEVDFVEIIGGTTRIPTLKQSISEAFGKPLSTTLNQDEAIAKGAAFICAIHS”, the “soluble on expression in E. coli” value was “not soluble”.
In the case of “MPLSYSSPSSSEERSDDPSKYDGDFGVPQICFCGKQLELVERLIGDQKKTFLKCPMSGQDDNYHVDKGWDLAVHEQCFCIDKRFGEHRELIQNAFKFGGDSNRLQINQIHAEIEDLKHRLDKKDAEIARLMDALGKK”, the “soluble on expression in E. coli” value is reported as “not soluble”.
For “MGSDKIHHHHHHMELYAASYILPIASPPIPGGAVAVHDGCIVETGTLAELRSRHSGPVHDFPGCAILPGLVNAHTHLELTHFPSWKIRKGIDYSPRTYVDWIIQVIKIRRALSPQELELSVREGLRICLEAGTTAIGEILTDRSLIPLYADSGLRGRLLFEAIGHDPVRNAQLVEELDAAIASFSGGSFLPGISPHAPHTVAEHLHQDVYRLAYERNVPRVIHLAESREESDFFFDSSGKIAEFLYPHVRWESYLPAPRRTTATAWLDGLGVLNGTISAVHCVHLTPSDAEILAKRGVGVVLCPRSNDKLAVGRAPVVLLKRLGVPLALGTDSLASNDSLSLWDEMRYLLDTFPGIFTPTEALSMTTIGSARQLALADRTGSLDKGKHADFLVMKLPGRNGSGEALHEALIHSGEILQVFLAGNLVVSREAFS”, the “soluble on expression in E. coli” value was “not soluble”.
For “SPPPKAGLPLQQELASGSALVTDQNTGKVLYSRNPDLVVPIASITKLMTAMVVLDSKLPLDEVLPIAISETSEMRGVFSRVRVGSQISRRDMLLLALMSSENRAAASLAQNYPGGKNAFVKAMNAKAHALGMKNTRYVEPTGLSLHNVSTARDLTRLLVASRQYPLLSQWSTTPEKTVAFRHPNYTLGFRNTNHLINNKTWNIQLTKTGFTNEAGHCLVMRTTINRSPVNLVVLDAFGKYTHFADATRLRRWLETGQVTAIPAAAKAYRLQRDRERGLGQPVAQAVR”, the “soluble on expression in E. coli” value was “soluble”.
For “PLRDVLDSNEFRDSKATLPIALGKDISGKPVIVDLAKMPHLLVAGSTGSGKSVGVNTMILSLLYRVQPEDVKFIMIDPKVVELSVYNDIPHLLTPVVTDMKKAANALRWCVDEMERRYQLLSALRVRNIEGFNEKIDEYEAMGMPVPNPIWRLGDTMDAMPPALKKLSYIVVIVDEFADLMMVAGKQIEELIARLAQKARAIGIHLILATQRPSV”, the “soluble on expression in E. coli” value was “not soluble”.
In the case of “MTNNSTKVCVLLATYNGTKWCLDQVKSILNQEDVNLEVFVSDDLSSDSTTDLLALLNDSRIHILASSYKFGSACQNFFRLVRDVDFSEYDYIAFADQDDLWNPNKLSYSIEQLNAHCADAFSSNVTAFWPDGRARLIVKDQPQREWDFLFESAGPGCTFVLTKKLACNLANFLHNNYEKTKGVALHDWFTYAFARSNSYSWWIDSQPTMMYRQHESNEFGVNSGVTAALSRFRKTSNGWYRNQVILIGDLVGAEDSWPIKRMRRFSLLDRMLLLFNVFAFRRSFRDRIALFFLLLLPQKKLEHHHHHH”, the “soluble on expression in E. coli” value is reported as “soluble”.
In the case of “MSLRVYVTGNITVDETWSIPDIPKKGASIHGVKVSQDIGGKGANQAIILSRCGIETRLIAATGNDSNGAWIRQQIKNEPLMLLPDGHFNQHSDTSIILNSADGDNAIITTTAAADTFSLDEMIPHMADAVAGDILLQQGNFSLDKTRALFQYARSRGMTTVFNPSPVNPDFCHLWPLIDIAVVNESEAELLQPYGVKTLVITQGAAGAWLVQEGQRQFCPAVPAEALDTTGAGDTFLAVMLASALLRGVAPDALALAHASRAAAITVSRRGTLSAFPGSRELAALLTTDGAEGHHHHHH”, the “soluble on expression in E. coli” value is reported as “soluble”.
For “MASPVIYQAEDAIIYNAILETVNAGYTGSCYVNYHNEVGGYIEWNVNAPSSGSYALIFRYANGTTANRPMRITVNGNIVKPSMDFVSTGAWTTWNEAGIVANLNQGNNVIRATAIASDGGPNVDYLKVFSANAFQPVSLEHHHHHH”, the “soluble on expression in E. coli” value was “soluble”.
In the case of “MDTSQKYRSNNEVDSPQIEHDKQALPSIESLYWGLQQNQQIQGIEQTGEPNGDNQPPQLVIDQLSYDQQQQQPKQNCFDTHGNMDDNRGLYNLPQGAENGSGHLVATESHQLHPPNYNLQQAQTPPPTRHSQYVDAAPQAYGSGQLVPENQRQPESAPDRPYQIMNVGCNPQSAQQHAQMEIPTMSHQLIGTCHNWQSGSQQGTSQNRKDFAGMQSCYGKDQHHQSALNGYHQLQAQPNLYPQHVSNQRPQWAMDQLGYYQQHQQQGPTWSDQNGNEGDNGGLYNHPQGAENGSGHLAATESHQLLPPSNNLQQVQIPAPTRHSQYVGASHLAYGSGQLVPENQLQPEPAPDRSYRKMNVGCNSQYAQQHAQMDQVIGTCHNCQSDSQQGTSQNRDNLAGMKGCCVKDQYHEPAPSGYHPPQAQSNCYPNHPPNPNMNAGDQDRQHVQLNFYTDPGFQQNSHVPYEMQQGFQTTGMQGSYQQNNQPELLFDSNNGNQTVNNAPNGNYQEPVYPLLQEGPTWNNNDNHDYFPSDDSMSQTSQEPVSVESIRKKTKRAKNKLEARKSLQKKKDDLKASRKSWEEVKINHNNILSSNNSNEENIKTAFDQVLYPCFTNQQVIGTFNIIRSYDEVQEGFAQFENDKQNIISKVDYLMKTDRNLKKLRMAKEVSEKQWEQFETDKKNRKEDDKKNKINGGNKLNGKTKIVSSITIATRCSRSKDKKETDAFKHDAKVLKFESSKQTQIKLCLKKYCDKFYPGVRMLLQHNWKFLRDNALHSGQSVQLEKLIECLKTFHLTEHAEKEHNLENS”, the “soluble on expression in E. coli” value is reported as “not soluble”.
In the case of “MGSDKIHHHHHHMGHQEFMSQEEVDALLKGVTGETDTVDEQRDLSSVRPYNIATQERIVRGRMPGLEIINDRFARLLRIGIFNFMRRTAEISVSQVKVQKYSEFTRNLPIPTNLNLVHVKPLRGTSLFVFDPNLVFFVVDNLFGGDGRFHTRVEGRDFTATEQRIIGKLLNLVFEHYATAWKSVRPLQFEFVRSEMHTQFANVATPNEIVIVTQFSIEFGPTGGTLHICMPYSMIEPIRDVLSSPIQGEALEVDRRWVRVLSQQVQSAEVELSANLAEIPSTFEKILNLRAGDVLPLEIEDTITAKVDGVPVMECGYGIFNGQYALRVQKMISASDTMKEGGYE”, the “soluble on expression in E. coli” value is reported as “not soluble”.
For “MPGQKQKGKKNVRRTKTRFELIEPSKGQLIAEVEDTHGGYPPRFSCKTVDGDIIIAPIQGSIMKGPKRVLVKKDNLVLLVPIDFTTGKEGTTSYYIHHVYTSEDRHQLEKKGFLEKKDKISDATKSTKVVFGVESSDKSLEKAKDEELDIDTI”, the “soluble on expression in E. coli” value was “not soluble”.
In the case of “MAHHHHHHMGDAENNENDKKCLWVPDEEVTNCYSCNAFFNVRVRKHHCRACGNVFCSNCSDNKIKISEYSYAEKVRVCDRCFMERSSPQTLLLQEDLGARKQINQDLKKALSEKMAIVERFKTFLLEFDSEILNNSDHADGSNDVMSLLKRGEKGLKDLNDKIRNYDSIIENQKKELEHLKREKEQKTELNKILHLRNHEIQQKNMNIKNLVKEKNELTLVKEESEGIIHSYKKQVEKLIIRCNQLELEKKRKNYTDQSSNYSFTNSSSQSYMMNSYRLPQNEMSVSYTVAQGPSDDPEEENCCNYCQRRVCSIM”, the “soluble on expression in E. coli” value is reported as “not soluble”.
For “LKDTLHNSELDDAERSSSDINNLFHSKPVKDISALDLNASLGNFQEIIIYDEHNNKLFETSNDNTVRVEPGYEHRYFDRVIKKRYKGIEYLIIKEPITTQDFKGYSLLIHSLENYDNIVKS”, the “soluble on expression in E. coli” value was “not soluble”.
For “MLSKGAVIDKLKSYKPCENCNGPISKTVSISDLNLDKRKRNCVCGNSQLDDVMLDVLNLMSEYNELQNTDLKDVTLRDAGTPLVEIGYPLKYLPVVSNDELIVMKDVSKACATEILKIPEVKGVISNNSKNNSFNRVEDSGEVNALIAGDDFRCDIFVLKSIMDCVVICKNQSKVHIEFPRPFNPKIAKIDRLNLKGKVVVDGFCGSGTLGLAALKKGAKKVIFSDINPHALKDVIYNLKLNFSKEVFDRIEIINSDFLNLDIVGDVCFVDLFPHMDKEPFLNKAKTISKQVVLILEHHHHHH”, the “soluble on expression in E. coli” value was “not soluble”.
In the case of “MGSDKIHHHHHHMGIGIIIASHGKFAEGIHQSGSMIFGEQEKVQVVTFMPNEGPDDLYGHFNNAIAQFDADDEVLVLADLWSGSPFNQASRVMGENPERKMAIITGLNLPMLIQAYTERMMDANAGVEQVAANIIKESKEGIKALPEELNPVVEATPVAGVPADVPAEVKQSGSIPEGTVIGDGKLKINLARIDTRLLHGQVATAWTPASKANRIIVASDEVSKDELRKQLIKQAAPGGVKANVVPISKLIEVAKDPRFGNTRALILFETVQDALRAIEGGVEIPELNVGSMAHSTGKTMVNNVLSMDKDDVAAFEKLRDLGVSFDVRKVPNDAKKNLFDLINKANVK”, the “soluble on expression in E. coli” value is reported as “not soluble”.
With “MPHFTKRPAQPQAALAEAAGLRWLAEASSAVAQVVSADAEQITTVGVETQLPTPDAAFKAGEELARIHLAGAPAFGCPPAGWAGLNYIGTQGQACLSTPTWGVFYSQQRVLPFARRARRRNHLTEHALWVVEAACDLISELPDDVPPARIHGDLWFGNLLFGTDGPVFIDPAAHGGHPETDLAMLDVFGAPYLDEIREGYLSINPLPDGWRERTPMHQLHPLAVHAASHGPSYGVELLHAAKATLKLLDLEHHHHHH” the “soluble on expression in E. coli” value was “not soluble”.
